Results from US20050203281A1, “Production of recombinant fragments of muscle acetylcholine receptor and their use for ex vivo immunoadsorption of anti-ch receptor antibodies from myasthenic patients” (priority 2002, published 2005).
“Also recorded” adds a separate entry of the source. Where two headings read alike, the source gives them in different places.

Key:
[1] = tested on: anti-AChR antibodies from MG sera; assay: Immunoadsorption of anti-AChR antibodies from MG sera by CNBr-Sepharose-immobilized subunit domains, RIA with human AChR from TE671 cells; format: binding; conditions: for percentage of anti-AChR antibodies eliminated, best-adsorbed sera: 13 of 64 (20%) MG sera, 2.5 ul serum
Method: FIG. 6 illustrates the immunoadsorption of anti-AChR antibodies from MG sera using immobilized alpha1-210 (black bars), gamma1-218 (grey bars) and epsilon1-219 (blank bars). Each subunit has been expressed in the yeast Pichia pastoris and the purified proteins have been covalently immobilized on CNBr-Sepharose beads. 64 MG positive sera were assayed for binding to human AChR after incubation with alpha1-210 immobilized on CNBr-Sepharose (together with BSA) or with just BSA immobilized on the same insoluble matrix. 2.5 ul of each MG patient serum were incubated with 0.2 ug immobilized alpha1-210 mixed with BSA or the same amount of BSA at […] for 2-3h (in a total volume of 0.16 ml) followed by centrifugation. Samples of the supernatants, each containing an amount corresponding to 0.9 ul of the treated MG sera were subsequently used in a typical RIA MG diagnostic test (Lindstrom et al., Meth. Enzymol. 74, 432460, 1981) with human AChR from TE671 cells. The percentage of immunoadsorption was estimated as described in the Example 3. Samples were processed in duplicates. Results shown (black bars) are an average of two experiments. Sera are sorted in decreasing percentage of immunoadsorption to immobilized alpha1-210.
FIG. 7 illustrates the immunoadsorption of anti-AChR antibodies from MG sera against immobilized alpha1-210 (black bars), gamma1-218 (gray bars) and a mix of both immobilized alpha1-210 and gamma1-218 (hatched bars). 9 MG sera were assayed for binding to human AChR after incubation of 20 fmoles anti-AChR MG antibodies with alpha1-210 (1 ug), or gamma1-218 (1 ug) or alpha1-210/gamma1-218 mix (containing 1 ug of each subunit) immobilized on CNBr-Sepharose. Incubation with just BSA immobilized to the same insoluble matrix served as a control to calculate the percent immunoadsorption against each of the subunits and the mix of both. After incubation with the Sepharose-immobilized proteins, sera were screened in a typical RIA experiment using TE671 AChR. The percentage of immunoadsorption was estimated as described in the Example 3. Samples were processed in duplicates. Results shown are an average of two experiments.
Immunoadsorption of MG autoantibodies by immobilized alpha1-210. 0.1 mg alpha1-210 mixed with 1.4 mg BSA was covalently bound to 0.5 gr CNBr-Sepharose according to manufacturer's protocol (Amersham). BSA was simply added to increase the protein/Sepharose ratio because the ratio of recombinant protein to Sepharose beads used would otherwise be too small; BSA is not necessary for larger scale experiments. In parallel, 1.5 mg BSA was bound to the same amount of CNBr-Sepharose under the same conditions as control. 2.5 ul MG patient sera were incubated with 0.2 ug immobilized alpha1-210 mixed with BSA, or the same amount of immobilized BSA alone, at 4° C. for 2-3 h (in a total volume of 0.16 ml) followed by centrifugation for bead precipitation. Samples of the supernatants, each containing an amount corresponding to 0.9 ul of these treated MG sera were subsequently used in a typical RIA MG diagnostic test (Lindstrom et al., Meth. Enzymol. 74, 432460, 1981) with human AChR from TE671 cells. The percentage of immunoadsorption was estimated as the ratio between the reduction in immunoprecipitated radiolabeled human AChR after incubation with alpha1-210 and the immunoprecipitated radiolabeled human AChR without incubation with alpha1-210 (incubation with plain immobilized BSA). 64 MG positive sera were assayed for binding to human AChR after incubation with immobilized alpha1-210 or BSA. […] We also tested immunoadsorption of the same set of MG sera by incubating 0.2 ug immobilized alpha1-210 with a fixed amount of anti-AChR antibodies (20 fmoles in variable volumes of MG sera depending on their titer) rather than a fixed serum volume.
Immunoadsorption of MG autoantibodies by immobilized gamma1-218 or epsilon1-219 domains. […]

alpha1-210 = assay: Delta1-224 studied together with alpha1-210 in 125I-alpha-BTX binding experiments; design: species or system human
[2] = tested on: anti-AChR autoantibodies from MG sera; assay: Binding of MG patients' autoantibodies to 125I-alpha-BTX-labeled alpha1-210 and hybrid AChR (RIA); design: species or system human
Method: 50 MG-positive sera were assayed for binding to alpha1-210 and to a hybrid AChR molecule (HaTbgd) containing human alpha subunit and Torpedo beta, gamma and delta subunits, labeled with ^125I-alpha-BTX. MG sera binding to ^125I-alpha-BTX-alpha1-210 were plotted versus binding to ^125I-alpha-BTX-HaTbgd in a logarithmic scale. […] Samples were processed in duplicates.
70 human sera were screened: 50 MG and 20 healthy controls (5 ul of human sera/sample).

125I-alpha-BTX [3] = format: binding
Method: FIG. 2 illustrates the binding of alpha-BTX to alpha1-210 of FIG. 1. (A) Scatchard plot analysis of ^125I-alpha-BTX binding to alpha1-210 fragment. Culture supernatants containing alpha1-210 (40 microliters, 40 ul) were incubated with various concentrations of ^125I-alpha-BTX in 10 ul of PBS-0.2 % bovine serum albumin (BSA), then, after 3 hours incubation at 40° C., the samples were filtered through Whatman DE81 filters, and the bound radioactivity measured on a gamma counter (filter assay). Samples were processed in duplicates. […] (B) The specific binding of the ^125I-alpha-BTX to alpha1-210 fragment was studied in competition experiments involving the simultaneous addition of increasing concentrations of unlabeled toxin. Samples were processed in duplicates. Binding of labeled alpha-BTX in the absence of unlabeled alpha-BTX was taken as the 100% level. (C) Effect of deglycosylation on ^125I-alpha-BTX binding to alpha1-210. In vitro deglycosylation was performed using N-glycosidase F treatment. Aliquots at various reaction time-points were assayed for ^125I-alpha-BTX binding in filter assay experiments. Samples were processed in duplicates (dark columns, N-glycosidase F treatment; light columns, control treatment).
To study the binding of alpha-BTX to alpha1-210 as an indication of correct protein folding, we tested both crude culture supernatants and the purified protein in “filter assay” experiments: Fifty nanograms of purified alpha1-210 or […] of culture supernatant was incubated at […] for 3 h with various concentrations of ^125I-alpha-BTX (specific activity 800,000 cpm/pmole) in a final volume of […] of PBS buffer, pH 7.5, 0.2% BSA. The samples were then diluted with 1 ml of 0.5% Triton X-100 in 20 mM Tris buffer, pH 7.5 (Triton buffer) and immediately filtered through two Whatman DE81 filters prewashed with Triton buffer. The filters were then washed twice with 1 ml of Triton buffer and the bound radioactivity measured on a gamma-counter. Samples without alpha1-210 were used to measure non-specific binding. Specific binding of alpha-BTX was also studied in competition experiments by addition of various amounts of unlabeled alpha-BTX to the sample.

125I-alpha-BTX [4] = assay: 125I-alpha-BTX filter assay of alpha domain expressed in HEK293 cells (SFV vector); format: binding; conditions: expressed in HEK293 cells with recombinant SFV-1 vector
Method: […] Approximately 2×10^6 transfected cells were allowed to express the protein of interest. Cells and medium supernatant were collected after two days. Cells were washed in cocktail buffer (1×PBS pH7.4 with PMSF. 1 mM, aprotinin 5units/ml, leupeptin 5 micrograms/ml, iodoacetamide 1 mM). The medium supernatant (12 ml) was concentrated […] to a final volume of 2.5 ml and dialysed against PBS buffer at 4° C. To extract the receptor, the cell pellet was resuspended in 0.5 ml of cocktail-2% Triton-X100 and the mixture was left at 4° C. with mild agitation. The mixture was subsequently centrifuged at 15000 g for 15 min and the supernatant was tested for ^125I-alpha-BTX binding. The filter assay technique (as described in Example 1) was used to test whether the expressed protein was secreted in the medium supernatant or retained within the cell (in either the cytoplasm or the membrane).
Having established that the cloned product is functional, the recombinant SFV plasmid is linearized at SpeI site, purified and used in an in vitro mRNA synthesis using the mMESSAGE mMACHINE kit (Ambion Inc.) Approximately 20 micrograms of mRNA produced is obtained and used to electroporate 0.7 ml of 10^7 cells/ml HEK293 cells. We only use the recombinant SFV-1 vector without the helper plasmid at this stage. Both the cells and the supernatant are collected two days post-electroporation. […]

B1: delta1-224: N-terminal extracellular domain of human muscle AChR delta subunit expressed in Pichia pastoris, FLAG epitope (protein)
chain: DYKDDDDKLNEEERLIRHLFQEKGYNKELRPVAHKEESVDVALALTLSNLISLKEVEETLTTNVWIEHGWTDNRLKWNAEEFGNISVLRLPPDMVWLPEIVLENNNDGSFQISYSCNVLVYHYGFVYWLPPAIFRSSCPISVTYFPFDWQNCSLKFSSLKYTAKEITLSLKQDAKENRTYPVEWIIIDPEGFTENGEWEIVHRPARVNVDPRAPLDSPSRQDITFYLIIRRK
modifications: glycosylated
[1]; immobilized on Sepharose-CNBr
  immunoadsorption of anti-AChR antibodies (in words): lower but very significant percentages; also recorded: large fractions
alpha1-210
  interaction between recombinant subunit domains: temporary weak interaction

B2: alpha1-210 (protein)
chain: SEHETRLVAKLFKDYSSVVRPVEDHRQVVEVTVGLQLIQLINVDEVNQIVTTNVRLKQQWVDYNLKWNPDDYGGVKKIHIPSEKIWRPDLVLYNNADGDFAIVKFTKVLLQYTGHITWTPPAIFKSYCEIIVTHFPFDEQNCSMKLGTWTYDGSVVAINPESDQPDLSNFMESGEWVIKESRGWKHSVTY
modifications: glycosylated at residue 141
[1]; 0.2 ug immobilized protein, 20 fmoles antibodies in variable serum volumes
  immunoadsorption with fixed amount of anti-AChR antibodies compared with fixed serum volume: identical with the above immunoadsorption results
[1]; 0.2 ug immobilized protein
  percentage of anti-AChR antibodies eliminated, best-adsorbed sera: more than 60%
[1]; 0.2 ug immobilized protein, listed as immobilized alpha domain
  percentage of anti-AChR antibodies eliminated, best-adsorbed sera: more than 60%
[1]; all sera tested
  average percentage of anti-AChR antibodies eliminated in all sera tested: 37%
[1]; another 24 sera (37%) of 64
  percentage of immunoadsorption, intermediate sera: 20-60%
[1]; serum no. 3, 1 ug of each immobilized subunit, 20 fmoles antibody
  immunoadsorption of serum no. 3: 54%
[1]; titration experiments, 0.25 ml serum of titer 5 nM
  amount of antibody eliminated by 1 ug immobilized protein: ≥ 1250 fmol
[1]; titration experiments, MG serum of titer 5 nM
  volume of MG serum from which 1 ug immobilized protein eliminates the anti-alpha antibodies: at least 0.25 ml
[2]
  proportion of MG sera with high anti-alpha titers that recognized the protein: 66%
125I-alpha-BTX [3]
  125I-alpha-BTX binding after deglycosylation: practically totally lost; also recorded: markedly impaired
  binding of 125I-alpha-BTX (in words): high affinity
125I-alpha-BTX [3]; read-out: average Kd of 125I-alpha-BTX binding, series of experiments
  Kd: 5.1 ± 2.4 nM
125I-alpha-BTX [3]; read-out: estimated Kd of 125I-alpha-BTX binding, representative experiment
  Kd: 3.3 nM

B3: alpha 1-210: extracellular domain of human alpha AChR with ApoE leader and six histidines, expressed in HEK293 cells by SFV vector (protein)
chain: SEHETRLVAKLFKDYSSVVRPVEDHRQVVEVTVGLQLIQLINVDEVNQIVTTNVRLKQQWVDYNLKWNPDDYGGVKKIHIPSEKIWRPDLVLYNNADGDFAIVKFTKVLLQYTGHITWTPPAIFKSYCEIIVTHFPFDEQNCSMKLGTWTYDGSVVAINPESDQPDLSNFMESGEWVIKESRGWKHSVTY
modifications: glycosylated at residue 141
125I-alpha-BTX [4]
  ability to bind 125I-alpha-BTX: good ability to bind
